Results on 167 variants are retold here after the RNAGym collection of RNA variant scans (doi:10.7554/elife.80360).

First the molecules themselves.
B1: HDV Ribozyme (parent)
chain: GGCCGGCAUGGUCCCAGCCUCCUCGCUGGCGCCGGCUGGGCAACAUUCCGAGGGGACCGUCCCCUCGGUAAUGGCGAAUGGGACCCA

This series covers variants of B1. As to the kind of experiment: self-cleavage, relative activity (ratio to wild type); higher = more cleavage; co-transcriptional.
Take A16G C22A: the self-cleavage amounted to 0.199.
Then C24G C44G, with 0.125; and C48A U60C, with 0.91; and C32G A71U, with 0.115.
For the variant G25U C57A, the self-cleavage amounted to 0.192.
Then G6U C62A, with 0.54; and C61U G73A, with 0.547; and G31A C84G, with 0.119.
The value for A8G G40A was 1.08.
Then C66G C86U, with 0.931; and C4U A83U, with 0.115.
U9C G55C: the self-cleavage turned out to be 0.703.
Then C13G A51C, with 0.0723; and G1A G80U, with 0.0133; and U23C A87G, with 0.855.
For the variant U12A C62A, the self-cleavage was 0.458.
The value for A8U G67U was 0.898; that for C30U G31A was 0.168; that for G59C C85U was 1.14.
The value for G34A was 0.189.
The value for G1U A77U was 0.146.
As for G10A G50C, the self-cleavage was 0.513.
Turning to C14G G35U, the self-cleavage turned out to be 0.
For G53C G68U, the self-cleavage was 0.475.
Then U9A U23C, with 1.08; and C61G G81C, with 0.262.
As to G38A C85A, the self-cleavage was determined as 0.104.
Consider A42U C85G, for which the self-cleavage stood at 0.332.
The value for U65C G68C was 0.883.
The value for G10U G82C was 0.089; that for C49A A51C was 0.297; that for A51U G76A was 0.961.
Then C33U G52U, with 0.747; and A51U G82U, with 0.373.
Take G5C A8C: the self-cleavage was 0.
The value for G59A G80A was 0.305.
G39C G82U: the self-cleavage amounted to 0.0791.
Consider C7U U27G, for which the self-cleavage worked out at 0.431.
Then C57A A77U, with 0.486; and C7A G10C, with 0.201.
The value for A43U A45U was 0.594.
Then G25C A83U, with 0.0923; and C14G U60C, with 0.443; and G28A A51U, with 0.138.
Turning to U12G A45G, the self-cleavage was 0.959.
The value for C32U A56U was 0.76; that for G40A A87U was 1.02.
Regarding C21U A51G, the self-cleavage turned out to be 0.228.
The value for A45C A71C was 0.831; that for A51C G53U was 0.69.
Then U20G C61A, with 0.142; and G31U A42G, with 0.0923.
For the variant C19G C48A, the self-cleavage was found to be 0.115.
The value for U27A A78C was 0.0573.
Then C13U U79G, with 0.0519; and U37C G39A, with 0.0997.
Then G28A A45G, with 0.0415; and G17C U60G, with 0.356; and G28C G80C, with 0.166.
As to U23G A87U, the self-cleavage was 0.715.
Then C24A U79A, with 0.227; and C7G U20A, with 0; and C66G A87C, with 0.857.
Then C4A A71G, with 0.151.
As to C21G U79G, the self-cleavage was determined as 0.0554.
Then C44U C85U, with 0.954; and C44U C85A, with 0.814.
Then A16G G31A, with 0.46.
Turning to G10U C48A, the self-cleavage stood at 0.698.
On to C3U G29C, for which the self-cleavage is 0.0601.
As for C15A C58A, the self-cleavage was 0.332.
Then G80U G82C, with 0.332.
The value for U47G U65A was 0.942.
Then G74A A78U, with 0.173.
Take A16G A56G: the self-cleavage came to 0.864.
Then C22A G25C, with 0.
Then G2C C86G, with 0.0252; and C26U U27A, with 0.886; and A51C C86U, with 1.01.
For the variant G50U G82A, the self-cleavage came to 0.499.
Then C21U C62U, with 0.317; and G31C U60C, with 0.525; and G10C C63U, with 1.03.
The value for G11A U23A was 0.313.
Then C41A A42C, with 0.739; and A51C A87G, with 0.862; and A42U C84A, with 0.655.
Take C33U U72C: the self-cleavage is 0.268.
The value for G39C C61G was 0.196; that for C36A U72A was 0.277.
The value for C44G U69C was 0.776; that for C19A A83U was 0.138; that for C3G C7G was 0.0244.
Then G28C G40A, with 0.148.
Take U60A G67U: the self-cleavage turned out to be 0.818.
The value for G1C U46C was 0.229.
As for G1A C75G, the self-cleavage was 0.108.
With C86G A87U, the self-cleavage was found to be 0.965.
The value for G5U A77U was 0.158.
Then C14G C44A, with 0.128; and C44A G59C, with 0.796.
Turning to G5A A83C, the self-cleavage amounted to 0.175.
G17A G67C: the self-cleavage was 0.659.
The value for C30A A78C was 0.117; that for G1A G82A was 0.
Then G1C A87G, with 0.0712; and C15A C33A, with 0.256; and C75A U79G, with 0.208.
Then C61G C63G, with 0.481; and C21A C41A, with 0.121.
For G35A G53U, the self-cleavage was determined as 0.736.
Then U47G U69G, with 0.776; and G11C U37A, with 0.
As for G25A G34A, the self-cleavage was 0.0863.
In the case of C86U, the self-cleavage worked out at 0.935.
Then A8G A83U, with 0.246; and C7A A43C, with 0.0923.
Turning to G82A C85A, the self-cleavage came to 0.253.
Turning to C62A C85U, the self-cleavage came out at 1.05.
Then G1C C7U, with 0.0475; and U46G G73A, with 0.831.
Take C61G C86U: the self-cleavage amounted to 0.772.
Regarding A45U U69G, the self-cleavage was 0.855.
Then C7A U46A, with 0.287.
Then G50C C57U, with 1.04.
Then C22G G34A, with 0.0339.
Take U12A C44U: the self-cleavage worked out at 0.
Then U20G G53U, with 0.208.
In the case of C58G U72C, the self-cleavage was 0.369.
For G40U G59U, the self-cleavage worked out at 0.732.
The value for U23G G39A was 0.17.
Then C18A A56G, with 0.162.
The value for C4U G38A was 0.0978; that for G10C U12A was 0.123; that for G31A A87U was 0.442.
For C13A A71C, the self-cleavage came to 0.135.
Regarding G50C G81U, the self-cleavage was found to be 0.263.
In the case of G10U C85U, the self-cleavage stood at 0.946.
The value for U20A C75G was 0.0791.
Then G11U C19U, with 0.0489; and C21U G80U, with 0.0919.
Then C7A A45G, with 0.705.
For the variant A16G G67U, the self-cleavage was determined as 0.831.
The value for C22U A51C was 0.928.
Then G1A U69A, with 0.145.
For the variant G29A G35A, the self-cleavage is 0.0923.
The value for G53C G80A was 0.307; that for G53U U60G was 0.972; that for C44U C58G was 0.712.
Consider C30A G82C, for which the self-cleavage came out at 0.193.
The value for A56G G80A was 0.32; that for U27C G34U was 0.185.
The value for C15U A16G was 1.05; that for U9G U20C was 0.
The value for C7A G80U was 0.152; that for C22G U69C was 0.0755; that for G38U G74U was 0.14.
As to C57A C66U, the self-cleavage came to 1.18.
Then C33A U60C, with 0.415.
The value for A8U G80U was 0.0715.
For the variant A51C A56U, the self-cleavage came out at 1.05.
C57U U72C: the self-cleavage was 0.566.
Then G50C A56C, with 0.978; and C32G G40U, with 0.0791.
Turning to C32G U65C, the self-cleavage amounted to 0.135.
Then C48G C49A, with 0.808.
On to U9C C22A, for which the self-cleavage was determined as 0.192.
